The source of these data is PMC5551644.

What is called Kd is the free concentration of one partner at which half of the binding sites on the other are occupied at equilibrium, for simple one-to-one binding. For orientation: stoichiometry N means the number of molecules, sites or subunits per partner or assembly.

Assay [1] addresses TGF-β2TM/TβRII binary complex (UniProt P37173). The assay can be described thus: SEC-MALS.
For assay [2] the target is unchanged. The assay can be described thus: SEC. Background: SEC sorts molecules by how far they enter the pores of the column.
In assay [3] the target is TGF-β2TM, variant of TGF-β2 bearing K25R, I92V, and K94R substitutions (human). The assay can be described thus: SPR. A general note: In SPR one partner is held on a chip, and binding of the other changes the refractive index at the surface.
Assay [4] has as its target Transforming growth factor β2 (TGF-β2), recombinant human (human) (UniProt P61812). As to the kind of experiment: SPR.
In assay [5] the target is TGF-β2TM, variant of TGF-β2 bearing K25R, I92V, and K94R substitutions (human). The assay can be described thus: SPR. This is another data set of the same source.
For assay [6], the target named is Transforming growth factor β2 (TGF-β2), recombinant human (human) (UniProt P61812). The assay can be described thus: SPR. The source holds these as a separate data set.
Assay [7] concerns the target TGF-β2TM/TβRII binary complex (UniProt P37173). As to the kind of experiment: ITC. Background: In ITC the heat of successive injections is recorded.
Assay [8] concerns the target Transforming growth factor β2 (TGF-β2), recombinant human (human) (UniProt P61812). The assay can be described thus: ITC.

Where two headings read alike, the source gives them in different places.

On to “betaglycan orphan domain (BGO), produced in E. coli (from UniProt P26342 24-384) (domain or fragment)”, for which the stoichiometry N (BGO per TGF-β2TM homodimer) in assay [1] and in assay [2] was 1 throughout. This substance also returned a Kd in assay [3] of 98 nM.

In the case of “betaglycan zona pellucida domain (BGZP) (from UniProt P26342 450-761) (domain or fragment)”, the Kd in assay [3] stood at 287 nM; in assay [5], 290 nM; in assay [6] it was 450 nM. Also, in assay [4], the apparent KD with 4 μM TβRII was 600 nM.

For “betaglycan orphan domain (BGO), produced in HEK-293 expi cells (from UniProt P26342 24-383) (domain or fragment)”, in assay [7], the equilibrium dissociation constant (Kd) stood at 82 nM, the dH is -38.8 kJ mol^–1 and the stoichiometry N was 1.07 sites.

With “C-terminal portion of the betaglycan zona pellucida domain (BG_(ZP-C)) (from UniProt P26342 589-761) (domain or fragment)”, the Kd in assay [3] came to 325 nM; in assay [6], 450 nM. In assay [4], the apparent KD with 2 μM TβRII amounted to 600 nM.

For “full-length betaglycan extracellular domain (BG_(O-ZP)) (from UniProt P26342 24-761) (domain or fragment)”, the dissociation constant Kd turned out to be 109 nM in assay [8] and 5.5 nM in assay [3]. Further, the dH in assay [8] is -52.6 kJ mol^–1. In addition, the stoichiometry N in assay [8] worked out at 1.04 sites. In addition, the stoichiometry N (BG (O-ZP) per TGF-β2TM homodimer) in assay [1] and in assay [2] was 1 throughout.
